Earlier results as cited in article PMC10839879.

Biological target: RNH1 (Homo sapiens) (UniProt P13489)
Sequence of UniProt P13489 (P13489 2-461): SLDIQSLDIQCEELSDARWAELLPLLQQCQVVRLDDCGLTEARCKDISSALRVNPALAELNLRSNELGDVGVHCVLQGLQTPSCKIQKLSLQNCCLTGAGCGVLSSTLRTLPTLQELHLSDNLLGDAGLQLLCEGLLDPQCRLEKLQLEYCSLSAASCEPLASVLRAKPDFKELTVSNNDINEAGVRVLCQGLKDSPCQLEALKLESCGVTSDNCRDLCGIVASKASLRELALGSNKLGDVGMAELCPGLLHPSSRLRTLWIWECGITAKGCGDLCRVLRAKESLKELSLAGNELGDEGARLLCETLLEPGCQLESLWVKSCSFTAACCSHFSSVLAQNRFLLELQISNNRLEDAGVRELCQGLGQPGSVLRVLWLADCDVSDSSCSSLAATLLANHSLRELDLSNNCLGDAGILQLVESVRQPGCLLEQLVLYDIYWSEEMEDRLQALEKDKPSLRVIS

- Kd: 0.001 pM
Substance: angiogenin (from UniProt P03950)
